Experimental data from patent publication US20220002700A1, “COMPUTATIONALLY-OPTIMIZED ACE2 PEPTIDES FOR COMPETITIVE INTERCEPTION OF SARS-CoV-2” (priority 2020, published 2022).
Where no end group is shown, it is not given here.

Legend:
[1] = molecular target: RBD-sfGFP (SARS-CoV-2 RBD fused to superfolder GFP) (Severe acute respiratory syndrome coronavirus 2, UniProt P0DTC2)
[2] = tested on: S protein-pseudotyped virus; assay type: cell-based, SARS-CoV-2

| Substance | degradation in TRIM21 assay compared with other architectures [1] | reduction (depletion) of GFP+ cells [1] | difference in pseudoviral infection competency with addition of exogenous peptide [2] |
| --- | --- | --- | --- |
| 23-mer (A2N) (QNKTFLDKFNHEAEDLFYQSSLA; also: fused to a dimerising Fc or GST) | improving on both the sACE2 and 23-mer architecture as well as that of a previously optimized full- length mutant, sACE2v2.4 | over 50% | Minimal difference |
| QAKTFLDKFNHEAEDLFYQSSLA [sACE2 peptide variant 2] | – | ~20% | – |
